The target in assay [1] is endogenous CD19 expressed on cell surface (Daudi cells, Raji cells, DLBCL tissue) (UniProt P15391). In words: FACS on Raji cells, secondary reagent alone (background).
The target of assay [2] is T1, full-length human CD19 fused with flag and Myc tags at the C-terminus, expressed on HEK293 or K562 cells (human, UniProt P15391 20-556).
T1 construct: whole, on cells; also called CD19/HEK293 cells; CD19-expressing HEK293 cells; not shown: C-terminal flag and Myc tags (pCMV6-Entry vector)
T1 sequence (looked up): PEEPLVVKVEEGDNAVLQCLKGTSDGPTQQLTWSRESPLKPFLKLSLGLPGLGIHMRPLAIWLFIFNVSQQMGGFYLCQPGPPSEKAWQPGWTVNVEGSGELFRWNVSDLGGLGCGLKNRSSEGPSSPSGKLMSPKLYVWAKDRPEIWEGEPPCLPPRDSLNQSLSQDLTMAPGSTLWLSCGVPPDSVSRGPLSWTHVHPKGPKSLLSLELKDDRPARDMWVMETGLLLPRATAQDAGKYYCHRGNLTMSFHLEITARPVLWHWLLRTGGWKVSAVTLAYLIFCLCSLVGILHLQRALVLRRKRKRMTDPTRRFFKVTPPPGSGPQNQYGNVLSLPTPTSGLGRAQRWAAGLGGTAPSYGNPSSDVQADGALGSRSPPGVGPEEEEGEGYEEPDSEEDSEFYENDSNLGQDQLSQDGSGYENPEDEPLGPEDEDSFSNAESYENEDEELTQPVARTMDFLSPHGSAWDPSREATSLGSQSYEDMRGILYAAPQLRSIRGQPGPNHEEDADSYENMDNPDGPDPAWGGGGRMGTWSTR
In words: FACS on CD19/HEK293 cells, scFv titration, anti-His Alexa 488 detection. As for the experimental part: The diluted samples were incubated with CD19-expressing HEK293 cells (CD19/HEK293 cells) in 96 wells plate on ice for 1 hour. Cells were spun down at 1200 rpm for 5 minutes at 4° C. to remove unbound antibodies. Cells were then washed once with 200 μL of full medium per well. Samples were mixed with an Alexa fluor 488-conjugated anti-His antibody (secondary antibody, 100 μL, 1:1000 diluted) and incubated at 4° C. for 30 minutes in dark. Samples were then spun down at 1200 rpm for 5 minutes at 4° C. and washed twice with 200 uL of 1×PBS per well. The resultant samples were reconstituted in 200 uL of 1×PBS and read on Guava EasyCyte. Analysis was done by counting only Alexa Fluor 488-positive cells and then plotted in Prism 8.1 software.

The target of assay [3] is T1, full-length human CD19 fused with flag …. In words: FACS titration on CD19/HEK293 cells, anti-His Alexa Fluor 488, positive cell counts; 20 nM FMC63 IgG present as competitor. The procedure:
Purified anti-CD19 scFv antibodies were titrated from 100 nM with 2-fold serial dilution. […] Cells were spun down at 1200 rpm for 5 minutes at 4° C. Samples were mixed with an Alexa fluor 488-conjugated anti-His antibody (100 uL, 1:1000 diluted) and incubated at 4° C. for 30 minutes in the dark. The samples were spun down at 1200 rpm for 5 minutes at 4° C. and washed twice with 200 μL of 1×PBS per well. The resultant samples were then reconstituted in 200 uL of 1×PBS and read on Guava EasyCyte. Analysis was done by counting only Alexa Fluor 488-positive cells and then plotted in Prism 8.1 software.

The next assay has as its target T2, human CD3ε/Fc (human, UniProt P07766 23-126, limits assumed).
T2 construct: Immobilised on the ELISA plate at 2 ug/mL; not shown: Fc
The experiment in a line: ELISA, human CD3ε/Fc immobilised, BiTE serially diluted. The procedure:
Further, an ELISA assay was developed to determine the EC50 of anti-CD19/CD3 BiTE antibodies. Briefly, 384 well plate was immobilized with human CD3ε/Fc at final concentration of 2 μg/mL in 1×PBS in total volume of 25 uL per well. The plate was incubated overnight at 4° C. followed by blocking with 80 uL of superblock per well for 1 hour. Anti-CD19/CD3 BiTE proteins were serial diluted, and 25 μL was added to CD3ε immobilized wells and incubated for 1 hour with shaking. The CD3ε binding was detected by adding 25 μL of anti-Flag HRP diluted at 1:5000 in 1×PBST. In between each step, the plate was washed 3 times with 1×PBST in a plate washer. The plate was then developed with 20 μL of TMB substrate for 5 mins and stopped by adding 20 μL of 2N sulfuric acid. The plate was read at OD450 nm Biotek plate reader and then plotted in Prism 8.1 software.
In general terms: In an ELISA, binding on a coated surface is turned into a signal by an enzyme label.

Assay [4] deals with T3, endogenous CD19 expressed on cell surface (Daudi cells, Raji cells, DLBCL tissue) (UniProt P15391 20-556, limits assumed).
T3 construct: whole, on cells; also called CD19+ Raji cells; CD19-positive DLBCL tissue
T3 sequence (looked up): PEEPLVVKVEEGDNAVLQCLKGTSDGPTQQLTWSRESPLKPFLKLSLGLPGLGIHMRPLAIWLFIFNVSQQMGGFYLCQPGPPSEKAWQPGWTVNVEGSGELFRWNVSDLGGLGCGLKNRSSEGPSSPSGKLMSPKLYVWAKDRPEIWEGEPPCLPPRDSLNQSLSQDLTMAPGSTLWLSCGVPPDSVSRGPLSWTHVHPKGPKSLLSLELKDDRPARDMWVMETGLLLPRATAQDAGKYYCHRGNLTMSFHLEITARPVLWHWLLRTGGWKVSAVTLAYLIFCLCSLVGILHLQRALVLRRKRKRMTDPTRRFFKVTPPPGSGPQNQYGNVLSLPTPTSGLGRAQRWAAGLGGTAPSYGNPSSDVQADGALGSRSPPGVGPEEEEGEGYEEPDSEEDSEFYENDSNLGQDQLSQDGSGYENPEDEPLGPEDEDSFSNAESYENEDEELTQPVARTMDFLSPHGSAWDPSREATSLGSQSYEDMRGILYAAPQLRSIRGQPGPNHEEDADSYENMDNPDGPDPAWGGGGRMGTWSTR
In words: FACS on CD19+ Raji cells, BiTE serially diluted from 200 nM. As for the experimental part:
(§1) A solution containing 200 nM of purified anti-CD19/CD3 BiTE antibodies were serial diluted in full medium and incubated with Raji cells in 96 wells plate on ice for one hour. Cells were spun down at 1200 rpm for 5 minutes at 4° C. to remove primary antibodies. Cells were then washed once with 200 uL of full medium per well. Samples were detected with premixed anti-His Biotin Streptavidin Alexa fluor 647 by adding 100 uL of diluted secondary antibody and incubated at 4° C. for 30 minutes in the dark. Samples were spun down at 1200 rpm for 5 minutes at 4° C. and washed twice with 200 uL of 1×PBS per well. Reconstituted samples in 200 uL of 1× PBS and read on Attune NxT cytometer. Analysis was done by Attune NxT software plotting the overlay histogram of CD19 or CD3 binding with secondary antibodies.

For assay [5], the target named is T3, endogenous CD19 expressed on cell …. In words: FACS on Raji cells, anti-His biotin/streptavidin Alexa 647 detection. The procedure: as §1
For assay [6], the target named is T4, CD3 on CD3+ Jurkat T cells (Homo sapiens (Human), UniProt P07766 23-207).
T4 construct: also called CD3+ Jurkat cells
In words: FACS on CD3+ Jurkat cells, anti-His biotin/streptavidin Alexa Fluor 647, positive cell counts. The procedure:
as §1
A similarly FACS assay was performed to examine the binding activity of the exemplary bispecific anti-CD19/anti-CD3 antibodies to CD3+ Jurkat T cells, following the descriptions above.

Assay [7] has as its target T3, endogenous CD19 expressed on cell …. In words: FACS on CD19+ Raji cells, BiTE serially diluted from 200 nM; CD19+ Raji cells, FACS. As for the experimental part: as §1

A word on the EC50: it is the concentration giving half of the maximal effect. The low end stands for an effect from little substance, the high end for a need for much substance. Broadly, the EC50 (read off the curve) is the concentration needed to bring the measured effect to its halfway point. Read a low EC50 (read off the curve) as greater potency.

T2 sequence (P07766 23-126 limits assumed): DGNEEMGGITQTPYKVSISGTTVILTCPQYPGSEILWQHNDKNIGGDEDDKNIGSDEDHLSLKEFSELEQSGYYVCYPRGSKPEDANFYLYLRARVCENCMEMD
T4 sequence (P07766 23-207 limits assumed): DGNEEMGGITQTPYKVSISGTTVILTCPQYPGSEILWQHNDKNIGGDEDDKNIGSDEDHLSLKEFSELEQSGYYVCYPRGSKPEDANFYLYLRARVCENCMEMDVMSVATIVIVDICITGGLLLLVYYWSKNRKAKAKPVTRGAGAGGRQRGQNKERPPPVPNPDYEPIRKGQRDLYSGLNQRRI

The molecule secondary antibody control returned a % Raji cells stained positive in assay [1] of 1.3%.

B1: 2018EP187-A12 (scFv, VH-VL orientation) (scFv)
scFv: QVQLQQWGAGLLKPSETLSLTCAVYGGSFSGYYWTWIRQPPGKGLEWIGEINHGGSSNYNPSLKSRVTISVDTSKKQFSLNLNSVTAADTAVYYCARGLGYRSGWYEVENAFDIWGQGTMVTVSSGGGGSGGGGSGGGGSQPVLTQPPSVSVAPGQTARITCGGNKIESRSVHWYQQKPGQAPVLVVYDDGARPSGIPERLSGSNSGDTATLTISRVEPGDEADYYCQVWDGSSVIFGGGTKLTVL
notes: Purified from E. coli periplasmic expression (pET22b); fully human scFv from mRNA display; also called 2018EP187-Al2; not shown: C-terminal flag and 6xHIS tag
B1 came in with an EC50 in assay [2] of 0.751 nM. For the same molecule, in assay [3], the concentration giving a half-maximal response (EC50 (read off the curve)) was 1.6 to 3 nM.

B2: BiTE EP383 (bispecific antibody)
chain: EVQLVESGAEVKKPGASVKVSCKASGYTFTSYYMHWVRQAPGQGLEWMGIINPSGGSTSYAQKFQGRVTITADESTSTAYMELSSLRSEDTAVYYCAREGGYKDFDYWGQGTLVTVSSGGGGSGGGGSGGGGSDIVMTQSPSSLSASVGDRVTVTCRASQSIDTYLNWYQQKPGKAPKLLIYTASTLQSGVPSRFSGSGSGTDFTLTISSLQPEDFATYYCQQSYSAPRTFGQGTKVEIKGGGGSEVQLVESGGGLVQPGGSLRLSCAASGFTFSTYAMNWVRQAPGKGLEWVGRIRSKYNNYATYYADSVKGRFTISRDDSKNTLYLQMNSLRAEDTAVYYCVRHGNFGDSYVSWFAYWGQGTLVTVSSGGGGSGGGGSGGGGSGGGGSQAVVTQEPSLTVSPGGTVTLTCGSSTGAVTTSNYANWVQQKPGKSPRGLIGGTNKRAPGVPARFSGSLLGGKAALTISGAQPEDEADYYCALWYSNHWVFGGGTKLTVLHHHHHH
notes: also called anti-CD19/anti-CD3 BiTE antibody
Consider B2, for which the EC50 is 3.17 nM with human CD3ε/Fc and 0.846 nM in assay [4]. Further, in assay [5], the “% Raji cells stained positive” value was about 80%. Moreover, the “EC50 (read off the curve)” value in assay [6] was about 0.8 nM.

B3: 2018EP188-B10 (scFv, VH-VL orientation) (scFv)
scFv: QVQLVQSGGGVVQPGKSLRLSCAASGFPFSSYTMHWVRQPPGEGLEWVALISYDGRNLYYADSVKGRFTISRDNSYNSLYLQLSGLRAEDTALYYCARDINRDHFYGMDLWGPGTTVTVSSGGGGSGGGGSGGGGSSYELTQPPSVSVAPGQTARIPCGGTNIGSKGVHWYQQKPGQAPVLVIYYDHSRPSGIPERFSGSNSGNTAALTISRVEAGDEADYYCQVWEGTSDHPVFGGGTKLTVL
notes: Purified from E. coli periplasmic expression; not shown: C-terminal flag and 6xHIS tag
B3: a half-maximal response in assay [2] (EC50) required 1.26 nM.

B4: 2018EP142-D09 (scFv, VH-VL orientation) (scFv)
scFv: EVQLVESGAEVKKPGASVKVSCKASGYTFTSYYMHWVRQAPGQGLEWMGIINPSGGSTSYAQKFQGRVTITADESTSTAYMELSSLRSEDTAVYYCAREGGYKDFDYWGQGTLVTVSSGGGGSGGGGSGGGGSDIVMTQSPSSLSASVGDRVTVTCRASQSIDTYLNWYQQKPGKAPKLLIYTASTLQSGVPSRFSGSGSGTDFTLTISSLQPEDFATYYCQQSYSAPRTFGQGTKVEIK
notes: Purified from E. coli periplasmic expression; also called EP142-D9; not shown: C-terminal flag and 6xHIS tag
B4 returned a half-maximal effective concentration (EC50) in assay [2] of 7.18 nM.

B5: BiTE EP381 (bispecific antibody)
chain: QVQLQQWGAGLLKPSETLSLTCAVYGGSFSGYYWTWIRQPPGKGLEWIGEINHGGSSNYNPSLKSRVTISVDTSKKQFSLNLNSVTAADTAVYYCARGLGYRSGWYEVENAFDIWGQGTMVTVSSGGGGSGGGGSGGGGSQPVLTQPPSVSVAPGQTARITCGGNKIESRSVHWYQQKPGQAPVLVVYDDGARPSGIPERLSGSNSGDTATLTISRVEPGDEADYYCQVWDGSSVIFGGGTKLTVLGGGGSEVQLVESGGGLVQPGGSLRLSCAASGFTFSTYAMNWVRQAPGKGLEWVGRIRSKYNNYATYYADSVKGRFTISRDDSKNTLYLQMNSLRAEDTAVYYCVRHGNFGDSYVSWFAYWGQGTLVTVSSGGGGSGGGGSGGGGSGGGGSQAVVTQEPSLTVSPGGTVTLTCGSSTGAVTTSNYANWVQQKPGKSPRGLIGGTNKRAPGVPARFSGSLLGGKAALTISGAQPEDEADYYCALWYSNHWVFGGGTKLTVLHHHHHH
notes: as for B2
Take B5: the concentration giving a half-maximal response (EC50) was determined as 5.57 nM with human CD3ε/Fc and 0.766 nM in assay [7]. Also, the “% Raji cells stained positive” value in assay [5] was about 92.3%. Also, the “EC50 (read off the curve)” value in assay [6] was about 0.8 nM.

B6: BiTE EP382 (bispecific antibody)
chain: QVQLVQSGGGVVQPGKSLRLSCAASGFPFSSYTMHWVRQPPGEGLEWVALISYDGRNLYYADSVKGRFTISRDNSYNSLYLQLSGLRAEDTALYYCARDINRDHFYGMDLWGPGTTVTVSSGGGGSGGGGSGGGGSSYELTQPPSVSVAPGQTARIPCGGTNIGSKGVHWYQQKPGQAPVLVIYYDHSRPSGIPERFSGSNSGNTAALTISRVEAGDEADYYCQVWEGTSDHPVFGGGTKLTVLGGGGSEVQLVESGGGLVQPGGSLRLSCAASGFTFSTYAMNWVRQAPGKGLEWVGRIRSKYNNYATYYADSVKGRFTISRDDSKNTLYLQMNSLRAEDTAVYYCVRHGNFGDSYVSWFAYWGQGTLVTVSSGGGGSGGGGSGGGGSGGGGSQAVVTQEPSLTVSPGGTVTLTCGSSTGAVTTSNYANWVQQKPGKSPRGLIGGTNKRAPGVPARFSGSLLGGKAALTISGAQPEDEADYYCALWYSNHWVFGGGTKLTVLHHHHHH
notes: as for B2
Consider B6, for which the concentration for a half-maximal effect (EC50) is 7.58 nM with human CD3ε/Fc and 3.81 nM in assay [4]. In addition, the “% Raji cells stained positive” value in assay [5] is about 81.1%. In addition, in assay [6], the “EC50 (read off the curve)” value was about 4 nM.

These data come from patent publication US20220289843A1 (ELPIS BIOPHARMACEUTICALS, published 2022).
